{"source": "patent CN101448941A", "binders": {"B1": {"name": "7-10G4344uhm轻链突变抗体 7-10VL_Y94F (antibody, part only; not given: heavy chain, not shown: a dimerising Fc or GST)", "light": "AIQLTQSPSSLSASVGDRVTITCRASQGISSALAWYQQKPGKAPKLLIYDASSLESGVPSRFSGSGSGTDFTLTISSLQPEDFATYYCQQFNSFPLTFGGGTKVEIK"}}, "key": {"[1]": {"molecular_target": "人血小板生成素受体 (人c-Mpl) (human) (UniProt P40238)", "test": "cell-based or functional assay"}, "[2]": {"molecular_target": "人血小板生成素受体 (人c-Mpl) (human) (UniProt P40238)", "test": "flow cytometry on FM3A-hMpl cells"}}}
{"binder": "B1", "values": [{"measurement": "激动活性 (UT-7/TPO细胞增殖试验), relative to 7-10G4344uhm (of the original level)", "setting": "[1]", "value": 0.1}, {"measurement": "结合活性 relative to the original 7-10G4344uhm (of the original level)", "setting": "[2]", "value": 0.1}]}
